From article PMC3958483, “Fine Specificity and Molecular Competition in SLAM Family Receptor Signalling” (PLoS ONE, 2014) come the findings set out here.

Common to all, as to experiment: SPR; biotinylated phosphopeptides immobilised on streptavidin chip (about 25 RU single, 50 RU tandem motifs); soluble recombinant protein injected; 37°C; HBS-EP; equilibrium binding (Table 4; same-day purification not given)
(In SPR one partner is held on a chip, and binding of the other changes the refractive index at the surface.)

For experiment [1], the target named is CD244 ITSM2 phosphopeptide (human).
Experiment [2] has as its target CD244 ITSM3 phosphopeptide (human).
Experiment [3] addresses CD244 ITSM4 phosphopeptide (human).

B1: EAT-2 (recombinant full-length human EAT-2) (natural protein)
chain: MDLPYYHGRLTKQDCETLLLKEGVDGNFLLRDSESIPGVLCLCVSFKNIVYTYRIFREKHGYYRIQTAEGSPKQVFPSLKELISKFEKPNQGMVVHLLKPIKRTSPSLRWRGLKLELETFVNSNSDYVDVLP
A word on the Kd: it is the equilibrium constant for the complex coming apart. For the molecule B1, the Kd was found to be 60 nM in experiment [1], 70 nM in experiment [2] and 40 nM in experiment [3].

B2: SHIP SH2 (SH2 domain from human SHIP-1) (domain or fragment)
chain: WNHGNITRSKAEELLSRTGKDGSFLVRASESISRAYALCVLYRNCVYTYRILPNEDDKFTVQASEGVSMRFFTKLDQLIEFYKKENMGLVTHLQYPV
Take B2: the Kd in experiment [1] came to 2300 nM; in experiment [2], 2200 nM; in experiment [3], 5600 nM.

B3: SHP-2 N-terminal + C-terminal (N+C) SH2 domains (domain or fragment)
chain: TSRRWFHPNITGVEAENLLLTRGVDGSFLARPSKSNPGDFTLSVRRNGAVTHIKIQNTGDYYDLYGGEKFATLAELVQYYMEHHGQLKEKNGDVIELKYPLNCADPTSERWFHGHLSGKEAEKLLTEKGKHGSFLVRESQSHPGDFVLSVRTGDDKGESNDGKSKVTHVMIRCQELKYDVGGGERFDSLTDLVEHYKKNPMVETLGTVLQLKQPLNTT
As to B3, in experiment [1], the Kd came to 24000 nM.
